From publication PMC11382887, “Molecular mechanism of HNF-1A–mediated HNF4A gene regulation and promoter-driven HNF4A-MODY diabetes”

Columns and labels:
[1] = target: T1, HNF-1A DD-DBD (HNF-1A 1-279) (UniProt P20823 1-279); assay: BLI; kinetic Kd (koff/kon); kon ~3x lower, koff ~3x higher; ITC: 20 mM HEPES pH 7.5, 200 mM NaCl, 1 mM TCEP, 30 C, 250 uM dsDNA into 50 uM protein; BLI: streptavidin sensor with BiotinTEG dsDNA, buffer not in material; conditions: protein: recombinant; tags: His6 removed by TEV; chain copies: 2; label: 5' BiotinTEG on forward strand (BLI only); blunt
T1 sequence (P20823 1-279): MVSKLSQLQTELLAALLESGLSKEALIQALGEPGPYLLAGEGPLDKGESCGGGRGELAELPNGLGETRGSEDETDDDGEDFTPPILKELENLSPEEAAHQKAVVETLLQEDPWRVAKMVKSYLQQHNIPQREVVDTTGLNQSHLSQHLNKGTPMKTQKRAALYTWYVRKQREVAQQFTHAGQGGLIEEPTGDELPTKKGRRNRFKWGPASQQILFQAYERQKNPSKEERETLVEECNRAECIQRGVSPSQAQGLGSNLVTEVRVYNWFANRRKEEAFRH

[2] = target: T1, HNF-1A DD-DBD (HNF-1A 1-279); assay: ITC; ITC: 20 mM HEPES pH 7.5, 200 mM NaCl, 1 mM TCEP, 30 C, 250 uM dsDNA into 50 uM protein; BLI: streptavidin sensor with BiotinTEG dsDNA, buffer not in material; conditions: protein: recombinant; tags: His6 removed by TEV; chain copies: 2; label: 5' BiotinTEG on forward strand (BLI only); blunt
[3] = target: T1, HNF-1A DD-DBD (HNF-1A 1-279); assay: BLI; ITC: 20 mM HEPES pH 7.5, 200 mM NaCl, 1 mM TCEP, 30 C, 250 uM dsDNA into 50 uM protein; BLI: streptavidin sensor with BiotinTEG dsDNA, buffer not in material; conditions: protein: recombinant; tags: His6 removed by TEV; chain copies: 2; label: 5' BiotinTEG on forward strand; blunt
[4] = target: T1, HNF-1A DD-DBD (HNF-1A 1-279); assay: ITC; 2:1 protein:DNA stoichiometry; ITC: 20 mM HEPES pH 7.5, 200 mM NaCl, 1 mM TCEP, 30 C, 250 uM dsDNA into 50 uM protein; BLI: streptavidin sensor with BiotinTEG dsDNA, buffer not in material; conditions: protein: recombinant; tags: His6 removed by TEV; chain copies: 2; label: 5' BiotinTEG on forward strand (BLI only); blunt
[5] = target: T1, HNF-1A DD-DBD (HNF-1A 1-279); assay: ITC; increase vs WT not significant; ITC: 20 mM HEPES pH 7.5, 200 mM NaCl, 1 mM TCEP, 30 C, 250 uM dsDNA into 50 uM protein; BLI: streptavidin sensor with BiotinTEG dsDNA, buffer not in material; conditions: protein: recombinant; tags: His6 removed by TEV; chain copies: 2; label: 5' BiotinTEG on forward strand (BLI only); blunt
[6] = target: T1, HNF-1A DD-DBD (HNF-1A 1-279); assay: ITC; text refers to ref 36; Methods also list RA among the titrations done here; ITC: 20 mM HEPES pH 7.5, 200 mM NaCl, 1 mM TCEP, 30 C, 250 uM dsDNA into 50 uM protein; BLI: streptavidin sensor with BiotinTEG dsDNA, buffer not in material; conditions: protein: recombinant; tags: His6 removed by TEV; chain copies: 2; label: 5' BiotinTEG on forward strand (BLI only); blunt
[7] = target: T1, HNF-1A DD-DBD (HNF-1A 1-279); assay: BLI; kinetic Kd (koff/kon); ITC: 20 mM HEPES pH 7.5, 200 mM NaCl, 1 mM TCEP, 30 C, 250 uM dsDNA into 50 uM protein; BLI: streptavidin sensor with BiotinTEG dsDNA, buffer not in material; conditions: protein: recombinant; tags: His6 removed by TEV; chain copies: 2; label: 5' BiotinTEG on forward strand (BLI only); blunt

B1: P2 -181G>T (dsDNA)
DNA 1: ACTGTTTACTCTTTAACGTAT
DNA 2: ATACGTTAAAGAGTAAACAGT
Q: Which results are given for B1?
A: binding signal [1]: ~10 fold Kd vs P2 WT; Kd [2]: 700 nM

B2: Randomized sequence (dsDNA)
DNA 1: TCATCATATCATGCTATAAAT
DNA 2: ATTTATAGCATGATATGATGA
Q: Does B2 bind [3]?
A: Result: no binding

B3: P2 WT (P2-HNF4A promoter) (dsDNA)
DNA 1: ACTGGTTACTCTTTAACGTAT
DNA 2: ATACGTTAAAGAGTAACCAGT
Q: How did the Kd [4] turn out when B3 was run?
A: The Kd was 304 ± 134 nM.

B4: P2 -181G>A (dsDNA)
DNA 1: ACTGATTACTCTTTAACGTAT
DNA 2: ATACGTTAAAGAGTAATCAGT
Q: B4 was tested. Which Kd [5] did it give?
A: The Kd was 600 nM.

B5: RA (rat albumin promoter) (dsDNA)
DNA 1: CTTGGTTAATAATTCACCAGA
DNA 2: TCTGGTGAATTATTAACCAAG
Q: For B5, which Kd [6] is on record?
A: Its Kd is 100 ± 50 nM.

B6: P2 -169C>T (dsDNA)
DNA 1: ACTGGTTACTCTTTAATGTAT
DNA 2: ATACATTAAAGAGTAACCAGT
Q: Which results are given for B6?
A: Kd fold change vs P2 WT [7]: ~5 fold Kd vs P2 WT; Kd [2]: 1200 nM
